Consider nine molecules from patent publication US20240287208A1 (CONCEPT TO MEDICINE BIOTECH, published 2024).

By Kd is commonly meant a measure of binding affinity in units of concentration. A low value points to tighter binding. The koff is a measure of how fast the partners let go of each other. Read a low koff as a long-lived complex. What is called kon is a measure of how fast the partners come together. The low end stands for slower complex formation, the high end for faster complex formation. In general, EC50 refers to the concentration giving half of the maximal effect. High values mean a less potent agent, low ones a more potent agent. In general, EC50 (read off the curve) refers to the concentration that produces a half-maximal response.

Where a chain is given by its changes, count along the chain named. Some results are limits rather than exact numbers.

The target of one experiment is T1, human 4-1BB protein (human, UniProt Q07011 24-186).
T1 construct: also called 4-IBB
Kind of experiment: ELISA, plate-coated protein. The method, then: (§1) To evaluate the cross reactivity of chimeric anti-CD40 antibodies to other family members of TNF receptors, the ELISA binding towards human 4-1BB and human OX40 were performed.
(§2) Briefly, microtiter plates were coated with human 4-1BB protein or human OX40 protein at 1 μg/ml in PBS, 100 μl/well at 4° C. overnight, then blocked with 150 μl/well of 1% BSA. Ten-fold dilutions of 42p155, 2p834, 2p931, 42p655, 2p1294, 2p957, 42p495, 3p78, 2p415, 2p442, 2p551, 2p80 and 2p1130 antibodies starting from 100 nM were added to each well and incubated for 1 hour at RT. The plates were washed with PBS/Tween and then incubated with Anti-Human IgG (H&L) (GOAT) Antibody Peroxidase Conjugated for 30 mins at RT. After washing, the plates were developed with TMB substrate and analyzed by spectrophotometer at OD 450 nm.
For orientation: ELISA stands for enzyme-linked immunosorbent assay.

Another experiment has as its target T2, human OX40 protein (human, UniProt P43489 29-216, limits assumed).
T2 sequence (looked up): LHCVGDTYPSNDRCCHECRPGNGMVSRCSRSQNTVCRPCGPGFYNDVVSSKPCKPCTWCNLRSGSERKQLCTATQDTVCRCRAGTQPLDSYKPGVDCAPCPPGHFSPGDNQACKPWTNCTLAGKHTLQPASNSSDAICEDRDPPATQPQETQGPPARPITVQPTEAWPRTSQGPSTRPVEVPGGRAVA
Kind of experiment: ELISA, plate-coated protein. The procedure:
as §1, §2

In experiment [1] the target is T3, human CD40-His protein (human, UniProt P25942 21-193).
T3 construct: His-tagged recombinant protein; also called human CD40-his tag; recombinant CD40 protein
The experiment is described as follows: SPR Biacore T200, antibody captured on Protein A, CD40-His as analyte. The method, then:
Bispecific antibodies with each of the 42p155, 2p834, 2p931, 42p655, 2p1294, 2p957, 42p495, 3p78, 2p415, 2p442, 2p551 and 2p1130 clones, as well as 2p80 monospecific antibody, were captured using Protein A chip. A serial dilution of human CD40-his tag protein was injected over captured antibody for 2 mins at a flow rate of 30 μl/min. The antigen was allowed to dissociate for 6 min. All the experiments were carried out on a Biacore T200. Data analysis was carried out using the Biacore T200 evaluation software.
(In general: SPR reads the build-up and loss of mass on a sensor chip optically.)

The target in experiment [2] is T4, human CD40 on the cell surface (human, UniProt P25942 21-277). Kind of experiment: cell-based or functional assay.
In experiment [3] the target is T3, human CD40-His protein. The experiment is described as follows: ELISA, plate-coated human CD40-His. The method, then: (§3) To evaluate the binding activity of clones 42p155, 2p834, 2p931, 42p655, 2p1294, 2p957, 42p495, 3p78, 2p415, 2p442, 2p551, 2p80 and 2p1130, the chimeric monospecific antibody (mAb) from these clones were subjected to ELISA test, along with selicrelumab, the clinical benchmark anti-CD40 agonist antibodies.
as §2, with “human CD40-His” for “human 4-1BB protein or human OX40”, “at 1.0” for “at 1”, “150 µl/well” for “150 μl/well”

Experiment [4] deals with T5, cynomolgus CD40-His protein (cynomolgus, UniProt G7PG38 21-193).
T5 construct: His-tagged recombinant protein; also called cyno CD40 antigen
The experiment is described as follows: ELISA, plate-coated cynomolgus CD40-His. The procedure: as §3
as §2, with “The binding affinity of these clones to cynomolgus CD40 was also tested. Microtiter plates” for “Briefly, microtiter plates”, “with cynomolgus CD40-His” for “with human 4-1BB protein or human OX40”, “at 1.0” for “at 1”, “100 µl/well” for “100 μl/well”, “150 µl/well” for “150 μl/well”, “nm. As shown in FIG. 1B and Table 2, all these clones bound to cynomolgus CD40 at high activity, showing good cross-reactivity between human and cynomolgus CD40 proteins.” for “nm.”

Another experiment has as its target T6, human 5T4 (human, UniProt Q13641 32-355, limits assumed).
T6 construct: also called hu5T4
T6 sequence (looked up): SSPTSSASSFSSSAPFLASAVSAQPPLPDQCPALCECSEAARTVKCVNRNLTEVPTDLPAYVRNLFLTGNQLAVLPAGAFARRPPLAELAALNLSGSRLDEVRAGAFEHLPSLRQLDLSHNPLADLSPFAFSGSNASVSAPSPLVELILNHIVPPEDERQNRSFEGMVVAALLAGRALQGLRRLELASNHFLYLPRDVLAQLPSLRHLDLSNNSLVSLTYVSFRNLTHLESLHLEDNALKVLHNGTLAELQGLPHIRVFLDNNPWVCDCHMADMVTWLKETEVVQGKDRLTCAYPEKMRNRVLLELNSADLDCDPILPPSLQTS
Kind of experiment: competitive ELISA on human 5T4.

Experiment [5] concerns the target T4, human CD40 on the cell surface. The experiment is described as follows: FACS, Jurkat cells overexpressing human CD40, PE anti-human IgG, MFI. The method, then: To evaluate their binding affinity to cell surface CD40, chimeric anti-CD40 monospecific antibodies were tested in Jurkat cell lines that overexpressed CD40 by FACS. A total number of 1×10⁵ Jurkat-CD40 cells in each well were incubated with 10-fold serially diluted antibodies starting from 100 nM for 30 minutes at 4° C. in FACS buffer. After wash by FACS buffer, PE conjugated-anti-human IgG antibody was added to each well and incubated at 4° C. for 30 minutes. After wash, MFI of PE was evaluated by MACSQuant Analyzer 16.
Background: Flow cytometry measures light scatter and fluorescence of single cells or particles in a stream.

Experiment [6] has the same target. Kind of experiment: FACS, human dendritic cells, MFI.

T4 sequence (P25942 21-277): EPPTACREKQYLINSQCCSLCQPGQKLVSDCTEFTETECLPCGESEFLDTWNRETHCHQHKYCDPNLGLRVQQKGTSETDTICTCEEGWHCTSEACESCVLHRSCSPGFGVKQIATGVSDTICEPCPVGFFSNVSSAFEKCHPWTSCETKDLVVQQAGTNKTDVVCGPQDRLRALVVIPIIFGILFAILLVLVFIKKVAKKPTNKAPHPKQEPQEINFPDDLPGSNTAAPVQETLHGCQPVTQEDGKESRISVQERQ
T3 sequence (P25942 21-193 limits assumed): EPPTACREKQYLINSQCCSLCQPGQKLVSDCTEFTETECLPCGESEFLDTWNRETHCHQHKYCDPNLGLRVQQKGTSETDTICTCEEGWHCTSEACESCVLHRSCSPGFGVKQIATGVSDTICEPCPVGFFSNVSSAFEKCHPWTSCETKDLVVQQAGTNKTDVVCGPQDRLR

B1: 2p80 chimeric monospecific antibody (antibody, V domains shown)
VH: QLQLVESGGGLVQAGGSLRLSCAASGRIFSSYAMSWFRQAPGKEREFVATIGWIGENTYYADSVKGRFTISRDNAKNTLYLQMNSLKPEDTAVYYCAAGLPANRYYDYWGQGTQVTVSS
notes: Chimeric monospecific antibody; also called 2p80 cAb
With B1, in the experiment with human 4-1BB protein, the binding result is listed as “no binding (tested: 100 nM (highest concentration))”. Besides, in the experiment with human OX40 protein, the binding result was “no binding (tested: 100 nM (highest concentration))”. In the experiment with human CD40-His protein [1], this molecule came in with a Kd of 213 nM, a koff of 0.000293 s⁻¹ and a kon of 1380 M⁻¹ s⁻¹. In addition, the “CD40 NF-κB luciferase reporter (Jurkat), RLU” value (shortened to “CD40 NF-κB luciferase reporter”) in experiment [2] is over 10 nM. This molecule had an EC50 with human CD40-His protein [3] of 3.08 nM. Also, it took 8.29 nM to reach a half-maximal effect in [4] (EC50).

B2: 14G12 anti-5T4 mouse monoclonal antibody (antibody, V domains shown)
VH: EVQLQQSGPELVKPGASVKISCKASGYAFSSSWMNWVKQRPGKGLEWIGRIYREDGHTNYNGKFKGKATLTADKSSTTAYMQLTSLTSEDSAVYFCANGGAMDYWGQGTSVTVSS
VL: DIQMTQSTSSLSASLGDRVTISCRASQDISNYLNWYQQKPDGTVKLLIYYTSRLHSGVPSRFSGSGSGTDYSLTISNLEQEDIATYFCQQDNTLPWTFGGGTKLEIK
notes: Mouse monoclonal antibody from hybridoma
Regarding B2, the binding result in the experiment with human 5T4 is listed as “binds”.

B3: 159D5 anti-5T4 mouse monoclonal antibody (antibody, V domains shown)
VH: DVQLVESGGGLVQPGGSRKLSCTASGFTFSNFGMHWVRQAPETGLEWVAYISSGSSTFYYADSVKGRFTISRDNPKNTLFLQMTSLRSEDTAMYFCARSPAYYRYGLDYWGQGTTLTVSS
VL: DIVLTQSPASLAVSLGQRATISCRASQSVSSSTFSYMHWYQQKPGQPPKLLIKSSSNLESGVPARFSGSGSGTDFTLNIHPVEEEDTATYYCQHSWEIPYTFGGGTKLEIK
notes: as for B2
Take B3: the binding result with human 5T4 is on record as “binds”.

B4: 2p931 chimeric monospecific antibody (antibody, V domains shown)
VH: AVQLVESGGGLVQPGGSLRLSCAASGFSFRNYMMNWVRQAPGKGLECLSSITSAGDITSYTESVKGRFTISRDNAKNTLYLQMNSLKPEDTAVYYCAQGGCGNYYRESWGQGTQVTVSS
notes: Chimeric monospecific antibody
On to B4, for which the binding result with human 4-1BB protein and with human OX40 protein was “no binding (tested: 100 nM (highest concentration))” each time. Moreover, the “CD40 NF-κB luciferase reporter” value in experiment [2] was over 10 nM. In addition, the half-maximal effective concentration (EC50 (read off the curve)) in experiment [5] is about 0.2 nM. The EC50 was found to be 0.99 nM with human CD40-His protein [3] and 0.26 nM in experiment [4].

B5: 2p834 chimeric monospecific antibody (antibody, V domains shown)
VH: QSQLVESGGGLVQPGGSLRLSCAASGFAFRRYTMSWVRQAPGKGLEWVSTITHNGSITTYAESAQGRFTISRDNAKNTLYLQMNSLKPEDTAVYYCAQGGGSNYYRESWGQGTQVTVSS
notes: as for B4
Turning to B5, the binding result in the experiment with human 4-1BB protein and in the experiment with human OX40 protein was “no binding (tested: 100 nM (highest concentration))” each time. In addition, in experiment [2], the “CD40 NF-κB luciferase reporter” value was over 10 nM. Moreover, the “EC50 (read off the curve)” value in experiment [5] was about 0.2 nM. The values for the EC50 (in the experiment with human CD40-His protein [3]; in [4]) were 0.76 nM and 0.2 nM, respectively.

B6: 3p78 chimeric monospecific antibody (antibody, V domains shown)
VH: B5 VH with Q1P, S2V, A28T, R31N, T33A, S56A
notes: as for B4
Take B6: the binding result with human 4-1BB protein and in the experiment with human OX40 protein was “no binding (tested: 100 nM (highest concentration))” each time. Moreover, in [2], the “CD40 NF-κB luciferase reporter” value is over 10 nM. For the same molecule, the “EC50 (read off the curve)” value in [5] was about 2 nM. The EC50 with human CD40-His protein [3] was 2.95 nM; in experiment [4] it was 2.84 nM.

B7: b16 (42p155z2)-LALA humanized anti-5T4/CD40 bispecific antibody (bispecific antibody, human IgG1, kappa, L234A L235A)
heavy 1: QVQLVQSGAEVKKPGASVKVSCKASGYAFSSSWMNWVRQAPGQGLEWMGRIYREDGHTNYNGKFKGRVTMTADKSITTAYMELSRLRSDDTAVYYCANGGAMDYWGQGTLVTVSSASTKGPSVFPLAPSSKSTSGGTAALGCLVKDYFPEPVTVSWNSGALTSGVHTFPAVLQSSGLYSLSSVVTVPSSSLGTQTYICNVNHKPSNTKVDKKVEPKSCDKTHTCPPCPAPEAAGGPSVFLFPPKPKDTLMISRTPEVTCVVVDVSHEDPEVKFNWYVDGVEVHNAKTKPREEQYNSTYRVVSVLTVLHQDWLNGKEYKCKVSNKALPAPIEKTISKAKGQPREPQVCTLPPSREEMTKNQVSLSCAVKGFYPSDIAVEWESNGQPENNYKTTPPVLDSDGSFFLVSKLTVDKSRWQQGNVFSCSVMHEALHNHYTQKSLSLSPGK
light: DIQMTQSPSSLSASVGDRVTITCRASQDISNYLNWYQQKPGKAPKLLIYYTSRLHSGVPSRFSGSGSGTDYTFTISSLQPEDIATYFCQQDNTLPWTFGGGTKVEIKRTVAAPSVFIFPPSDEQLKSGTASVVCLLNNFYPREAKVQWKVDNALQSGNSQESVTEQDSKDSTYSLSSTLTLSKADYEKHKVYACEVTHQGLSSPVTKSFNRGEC
heavy 2: not shown
Take B7: in [6], the “EC50 (read off the curve)” value was about 0.5 nM.

B8: 286B4 anti-5T4 mouse monoclonal antibody (antibody, V domains shown)
VH: DVQLHESGPGLVKPSQSLSLTCSVTGYSITNNYYWNWIRQFPGNNLEWMGYITYDGSNNYNPSLKNRISVTRDTSKNQFFLKLSSVTTEDTATYYCTRGGGQLRFDYWGQGTTLTVSS
VL: SIVMTQTPKFLIVSAGDRVTITCKASQSVSNEVTWYQQKPGQSPKMLIYYASNRYTGVPDRFTGSGYGTDFTFTINTVQAEDLAIYFCQQDYSSPWTFGGGTKLEIK
notes: as for B2
As for B8, the binding result with human 5T4 was “binds”.

B9: 393E9 anti-5T4 mouse monoclonal antibody (antibody, V domains shown)
VH: EVKLVESGGGLVQPGGSLSLSCAASGFTFTDYYMSWVRQPPGKALEWLGFIRNKGNGYTTENSASVKGRFTISRDNSQSILYLQMNALRAEDSATYYCARYRGNPHYAMDYWGQGTSVTVSS
VL: DIVLTQFPASLAVSLGQRATISCRASESVEFYGTSFLQWYQQKPGQPPKLLIYGASNVESGVPARFSGSGSGTDFSLSIHPVEEDDIAMYFCQQSRKVPSTFGGGTKLEIK
notes: as for B2
In the case of B9, in the experiment with human 5T4, the binding result is reported as “binds”.
